Data reported in patent US10597433B2, “Peptides and combination of peptides for use in immunotherapy against small cell lung cancer and other cancers” (Immatics Biotechnologies GmbH, priority 2015, dated 2020).

Each substance was assayed against HLA-A*02:01 (Homo sapiens, UniProt P04439, D140Y/D185E/D98H/E176V/E277Q/G131W/G231S/I119V/I121R/I166T/I218V/L300P/L318F/N151K/N90K/P208A/P217A/Q86G/Q94H/R138H/R169H/T345S) (assay: MHC binding assay: UV-ligand exchange with ELISA detection of β2m of stabilized MHC complexes). Settings: binding to HLA-A*02:01.
From the text: Candidate peptides for T cell based therapies according to the present invention were further tested for their MHC binding capacity (affinity). The individual peptide-MHC complexes were produced by UV-ligand exchange, where a UV-sensitive peptide is cleaved upon UV-irradiation, and exchanged with the peptide of interest as analyzed. Only peptide candidates that can effectively bind and stabilize the peptide-receptive MHC molecules prevent dissociation of the MHC complexes. To determine the yield of the exchange reaction, an ELISA was performed based on the detection of the light chain (β2m) of stabilized MHC complexes. The assay was performed as generally described in Rodenko et al. (Rodenko et al., 2006).
96 well MAXISorp plates (NUNC) were coated over night with 2 μg/ml streptavidin in PBS at room temperature, washed 4× and blocked for 1 h at 37° C. in 2% BSA containing blocking buffer. Refolded HLA-A*02:01/MLA-001 monomers served as standards, covering the range of 15-500 ng/ml. Peptide-MHC monomers of the UV-exchange reaction were diluted 100 fold in blocking buffer. Samples were incubated for 1 h at 37° C., washed four times, incubated with 2 μg/ml HRP conjugated anti-β2m for 1 h at 37° C., washed again and detected with TMB solution that is stopped with […]. Absorption was measured at 450 nm. Candidate peptides that show a high exchange yield (preferably higher than 50%, most preferred higher than 75%) are generally preferred for a generation and production of antibodies or fragments thereof, and/or T cell receptors or fragments thereof, as they show sufficient avidity to the MHC molecules and prevent dissociation of the MHC complexes.

Peptide exchange (MHC class I binding score, peptide exchange yield), ++++ (≥75% = ++++):
5 (SLQSLIISV; listed as Homo sapiens) [compound 5]
25 (GLSETILAV; listed as Homo sapiens) [compound 25]
26 (KMLDEAVFQV; listed as Homo sapiens) [compound 26]
27 (SLDIITITV; listed as Homo sapiens) [compound 27]
28 (ILVSQLEQL; listed as Homo sapiens) [compound 28]
31 (RLLQDPVGV; listed as Homo sapiens) [compound 31]
35 (FMGDVFINV; listed as Homo sapiens) [compound 35]
38 (GLISSLNEI; listed as Homo sapiens) [compound 38]
44 (ALIVGIPSV; listed as Homo sapiens) [compound 44]
52 (ILASFMLTGV; listed as Homo sapiens) [compound 52]
53 (LLSEEHITL; listed as Homo sapiens) [compound 53]
54 (HLFDIILTSV; listed as Homo sapiens) [compound 54]
55 (LLIADNPQL; listed as Homo sapiens) [compound 55]

Peptide exchange (MHC class I binding score, peptide exchange yield), ++ (≥20% = ++):
9 (AAAPGEALHTA; listed as Homo sapiens) [compound 9]
45 (SLSGEIILHSV; listed as Homo sapiens) [compound 45]
49 (RLALNTPKV; listed as Homo sapiens) [compound 49]

Peptide exchange (MHC class I binding score, peptide exchange yield), +++ (≥50 = +++):
1 (AMLEEVNYI; listed as Homo sapiens) [compound 1]
3 (VLAEIDPKQLV; listed as Homo sapiens) [compound 3]
7 (GLLGDIAIHL; listed as Homo sapiens) [compound 7]
12 (MLFEGLDLVSA; listed as Homo sapiens) [compound 12]
13 (FLTAFLVQI; listed as Homo sapiens) [compound 13]
14 (ILIETKLVL; listed as Homo sapiens) [compound 14]
15 (SLLTAISEV; listed as Homo sapiens) [compound 15]
16 (VILDLPLVI; listed as Homo sapiens) [compound 16]
17 (SLMLVTVEL; listed as Homo sapiens) [compound 17]
18 (ALGEISVSV; listed as Homo sapiens) [compound 18]
19 (VLLTTAVEV; listed as Homo sapiens) [compound 19]
20 (MLDEILLQL; listed as Homo sapiens) [compound 20]
21 (TMEEMIFEV; listed as Homo sapiens) [compound 21]
22 (LLPEKSWEI; listed as Homo sapiens) [compound 22]
23 (YQIDTVINL; listed as Homo sapiens) [compound 23]
24 (FLMEEVHMI; listed as Homo sapiens) [compound 24]
30 (KMLGLTVSL; listed as Homo sapiens) [compound 30]
32 (ALTSLELEL; listed as Homo sapiens) [compound 32]
34 (LVFEGIMEV; listed as Homo sapiens) [compound 34]
36 (RMDGAVTSV; listed as Homo sapiens) [compound 36]
37 (SLFYNELHYV; listed as Homo sapiens) [compound 37]
40 (GLLEVQVEV; listed as Homo sapiens) [compound 40]
41 (KAYQELLATV; listed as Homo sapiens) [compound 41]
42 (GLLEDERALQL; listed as Homo sapiens) [compound 42]
43 (YLWSEVFSM; listed as Homo sapiens) [compound 43]
46 (ALWVAVPKA; listed as Homo sapiens) [compound 46]
47 (GLLEALLKI; listed as Homo sapiens) [compound 47]
48 (SLIGLDLSSV; listed as Homo sapiens) [compound 48]
50 (FLLSQIVAL; listed as Homo sapiens) [compound 50]
51 (ILDEAGVKYFL; listed as Homo sapiens) [compound 51]
56 (SLFSQMGSQYEL; listed as Homo sapiens) [compound 56]
